For this data set, the system named is Escherichia coli TOP10. Put plainly: shrunken log2 fold change of peptide-encoding DNA abundance (4.5 h post-induction vs induction); higher = less antimicrobial activity (less host growth inhibition). The settings on record: time post-induction: 4.5 h; library: site-saturation at positions 5, 18, 19, 20.
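Also: peptides expressed intracellularly from a pBAD plasmid library in pooled LB shake-flask culture, induced with 0.3% L-arabinose, DNA abundance read by NGS, three biological replicates, DESeq2 with apeglm shrinkage.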

Turning to RRIRFRPPRLPRPRPRPKRAPRP, the “shrunken log2 fold change” value stood at 0.244.

With RRIRLRPPRLPRPRPRPCYAPRP, the “shrunken log2 fold change” value was -0.0464.

RRIRTRPPRLPRPRPRPKWVPRP: the “shrunken log2 fold change” value is 0.129.

In the case of RRIRFRPPRLPRPRPRPPNYPRP, the “shrunken log2 fold change” value is -0.023.

For the sequence RRIRYRPPRLPRPRPRPENNPRP, the “shrunken log2 fold change” value is -0.572.

Consider RRIRLRPPRLPRPRPRPGYIPRP, for which the “shrunken log2 fold change” value is -0.41.

Regarding RRIRTRPPRLPRPRPRPTLIPRP, the “shrunken log2 fold change” value was -0.108.

Consider RRIRVRPPRLPRPRPRPFTKPRP, for which the “shrunken log2 fold change” value was -0.79.

In the case of RRIRDRPPRLPRPRPRPSFVPRP, the “shrunken log2 fold change” value is -0.0915.

As for RRIRTRPPRLPRPRPRPAFFPRP, the “shrunken log2 fold change” value worked out at 0.0542.

Consider RRIRWRPPRLPRPRPRPIWHPRP, for which the “shrunken log2 fold change” value came to 0.126.

With RRIRKRPPRLPRPRPRPREYPRP, the “shrunken log2 fold change” value was determined as 0.261.

As for RRIRERPPRLPRPRPRPKEHPRP, the “shrunken log2 fold change” value is -0.457.

Regarding RRIRMRPPRLPRPRPRPWPFPRP, the “shrunken log2 fold change” value came to 0.0942.

With RRIRTRPPRLPRPRPRPAPGPRP, the “shrunken log2 fold change” value is 0.544.

For the sequence RRIRDRPPRLPRPRPRPPNDPRP, the “shrunken log2 fold change” value worked out at 0.14.

With RRIRLRPPRLPRPRPRPYLCPRP, the “shrunken log2 fold change” value was -0.0953.

In the case of RRIRSRPPRLPRPRPRPMPSPRP, the “shrunken log2 fold change” value was -0.194.

As to RRIRLRPPRLPRPRPRPCHPPRP, the “shrunken log2 fold change” value was determined as 0.159.

As to RRIRRRPPRLPRPRPRPRSRPRP, the “shrunken log2 fold change” value turned out to be 0.345.

As to RRIRPRPPRLPRPRPRPCSHPRP, the “shrunken log2 fold change” value was -0.0663.

RRIRGRPPRLPRPRPRPCFKPRP: the “shrunken log2 fold change” value amounted to 0.00363.

As for RRIRHRPPRLPRPRPRPCPTPRP, the “shrunken log2 fold change” value is -0.258.

On to RRIRHRPPRLPRPRPRPLGEPRP, for which the “shrunken log2 fold change” value is 0.433.

In the case of RRIRCRPPRLPRPRPRPLPKPRP, the “shrunken log2 fold change” value is 0.258.

On to RRIRYRPPRLPRPRPRPQQTPRP, for which the “shrunken log2 fold change” value turned out to be 0.019.

Turning to RRIRPRPPRLPRPRPRPNTWPRP, the “shrunken log2 fold change” value is 0.272.

For the sequence RRIRSRPPRLPRPRPRPMYNPRP, the “shrunken log2 fold change” value is -0.557.

With RRIRYRPPRLPRPRPRPKNTPRP, the “shrunken log2 fold change” value was -0.579.

As for RRIRGRPPRLPRPRPRPVTSPRP, the “shrunken log2 fold change” value was 0.203.

In the case of RRIRARPPRLPRPRPRPTGVPRP, the “shrunken log2 fold change” value was 0.439.

Regarding RRIRKRPPRLPRPRPRPSDRPRP, the “shrunken log2 fold change” value was 0.0691.

Consider RRIRRRPPRLPRPRPRPCFQPRP, for which the “shrunken log2 fold change” value was -0.0758.

RRIRKRPPRLPRPRPRPMNTPRP: the “shrunken log2 fold change” value was -0.287.

On to RRIRVRPPRLPRPRPRPGLTPRP, for which the “shrunken log2 fold change” value is -0.011.

With RRIRKRPPRLPRPRPRPHWYPRP, the “shrunken log2 fold change” value was 0.0533.

RRIRRRPPRLPRPRPRPTDLPRP: the “shrunken log2 fold change” value was -0.162.

Regarding RRIRKRPPRLPRPRPRPYCMPRP, the “shrunken log2 fold change” value is -0.461.

Turning to RRIRCRPPRLPRPRPRPDRDPRP, the “shrunken log2 fold change” value amounted to 0.108.

Regarding RRIRNRPPRLPRPRPRPAHRPRP, the “shrunken log2 fold change” value worked out at 0.264.

As for RRIRARPPRLPRPRPRPHCTPRP, the “shrunken log2 fold change” value worked out at 1.18.

For RRIRWRPPRLPRPRPRPGYDPRP, the “shrunken log2 fold change” value is -0.0098.

Consider RRIRTRPPRLPRPRPRPEEQPRP, for which the “shrunken log2 fold change” value stood at 0.0262.

For the sequence RRIRERPPRLPRPRPRPRCNPRP, the “shrunken log2 fold change” value was -0.122.

For the sequence RRIRNRPPRLPRPRPRPVGDPRP, the “shrunken log2 fold change” value turned out to be 0.0156.

As to RRIRERPPRLPRPRPRPNNVPRP, the “shrunken log2 fold change” value is -0.28.

For RRIRIRPPRLPRPRPRPYEFPRP, the “shrunken log2 fold change” value is 0.00826.

RRIRHRPPRLPRPRPRPESAPRP: the “shrunken log2 fold change” value worked out at 0.368.

Take RRIRSRPPRLPRPRPRPMDHPRP: the “shrunken log2 fold change” value is -0.187.

For RRIRGRPPRLPRPRPRPCNEPRP, the “shrunken log2 fold change” value came to 0.0278.

The record behind these values is the supplement of paper PMC9112550, “Optimization of the antimicrobial peptide Bac7 by deep mutational scanning” (BMC Biology, 2022).
